Among the data in patent publication US20180099041A1 are IC50 (neutralization of pseudovirus infection) values, retold here.

In assay [1] the target is gp160 clone 108069_005 Q655R (HIV-1).
The target of assay [2] is gp160 clone 108051_005 Q655R (HIV-1).

Take enfuvirtide (peptide): the IC50 (neutralization of pseudovirus infection) with 108060_024 R655Q (HIV-1) turned out to be 0.13 µg/mL; in assay [1], 0.011 µg/mL; with 108060_022 Q655R (HIV-1) it was 0.004 µg/mL; in assay [2] it was 0.036 µg/mL.
With monoclonal antibody 2G12, the IC50 (neutralization of pseudovirus infection) (in the assay with 108060_024 R655Q (HIV-1); in assay [1]; with 108060_022 Q655R (HIV-1); in assay [2]) was more than 20 µg/mL throughout.
For “CD4-IgG (from UniProt P01730) (Fc fusion)”, the IC50 (neutralization of pseudovirus infection) in the assay with 108060_024 R655Q (HIV-1) is more than 20 µg/mL; in assay [1] it was 1.08 µg/mL; with 108060_022 Q655R (HIV-1), 0.161 µg/mL; in assay [2] it was 5.21 µg/mL.
Regarding “broadly neutralizing, CD4 blocking monoclonal antibody b12”, the IC50 (neutralization of pseudovirus infection) (with 108060_024 R655Q (HIV-1); in assay [1]; with 108060_022 Q655R (HIV-1); in assay [2]) was more than 20 µg/mL in each case.
In the case of “broadly neutralizing monoclonal antibody 4E10”, the IC50 (neutralization of pseudovirus infection) with 108060_024 R655Q (HIV-1) came to 6.55 µg/mL; in assay [1] it was 0.044 µg/mL; in the assay with 108060_022 Q655R (HIV-1), 0.156 µg/mL; in assay [2], 1.31 µg/mL.
On to “broadly neutralizing monoclonal antibody 2F5”, for which the IC50 (neutralization of pseudovirus infection) with 108060_024 R655Q (HIV-1) is 3.43 µg/mL; in assay [1], 0.052 µg/mL; in the assay with 108060_022 Q655R (HIV-1), 0.093 µg/mL; in assay [2] it was 0.343 µg/mL.
